{
  "source": "paper PMC5797133",
  "key": {"[1]": {"biological_target": "short-chain dehydrogenase/reductase from Serratia marcescens BCRC 10948 (Serratia marcescens BCRC 10948)", "assay": "SEC; size-exclusion chromatography of the purified SmSDR; single peak; conditions not given"}, "[2]": {"biological_target": "short-chain dehydrogenase/reductase from Serratia marcescens BCRC 10948 (Serratia marcescens BCRC 10948)", "assay": "crystal structure; apo form, 1.47 Å, space group P4(1)2(1)2; sitting drop, 20 °C, 50 mM HEPES pH 7.0, 40% tacsimate pH 7.0, 2 mM spermine, 2 mM hexamine cobalt (III) chloride; homodimer AB in the asymmetric unit, tetramer by two-fold crystallographic symmetry"}},
  "data": [
    {"substance": "short-chain dehydrogenase/reductase from Serratia marcescens BCRC 10948 (enzyme)", "values": [
      {"measurement": "stoichiometry N", "setting": "[1]", "value": 4},
      {"measurement": "stoichiometry N", "setting": "[2]", "value": 4}
    ]}
  ]
}
